Assay results taken from article PMC8785239.

Molecular target: fluorescein-labeled sulfopeptide
Assay: fluorescence polarisation

In the case of SH2-S37H (domain or fragment), the fold improvement in affinity for sulfopeptide over phosphopeptide is reported as 1.4 fold.

In the case of SH2-T39F (domain or fragment), the fold improvement in affinity over SH2-wt is reported as greater than 35 fold.

For SH2-S37H/E38P (domain or fragment), the fold improvement in affinity for sulfopeptide over phosphopeptide was 6.6 fold.

SH2-E38P (domain or fragment) was tested, and the fold improvement in affinity over SH2-wt was 17 fold.
